The source of these data is paper PMC12416549 (2024).

To fix the notation:
T1: TNFR1 (Homo sapiens, UniProt P19438)
T1 chain: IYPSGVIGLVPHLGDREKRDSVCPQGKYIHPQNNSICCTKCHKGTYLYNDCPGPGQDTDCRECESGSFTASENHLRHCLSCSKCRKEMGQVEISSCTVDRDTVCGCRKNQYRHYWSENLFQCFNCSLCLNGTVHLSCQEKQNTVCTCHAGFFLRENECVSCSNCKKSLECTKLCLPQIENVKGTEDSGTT

B1: E99L (designed binder)
chain: MTLQELLREEALRRAEAEAFRYALELLAEKFPEQKEYLLDLAEEIESQIRSLSGVDVEDVRKFLDKEWAWVKELLAEHPAELAEVEAARAARLAELRALVEAKVAA
B2: I45A (designed binder)
chain: MTLQELLREEALRRAEAEAFRYALELLAEKFPEQKEYLLDLAEEAESQIRSLSGVDVEDVRKFLDKEWAWVKELLAEHPAELAEVEAARAARLAELRAEVEAKVAA
B3: A90W (designed binder)
chain: MTLQELLREEALRRAEAEAFRYALELLAEKFPEQKEYLLDLAEEIESQIRSLSGVDVEDVRKFLDKEWAWVKELLAEHPAELAEVEAARWARLAELRAEVEAKVAA
B4: L41I (designed binder)
chain: MTLQELLREEALRRAEAEAFRYALELLAEKFPEQKEYLLDIAEEIESQIRSLSGVDVEDVRKFLDKEWAWVKELLAEHPAELAEVEAARAARLAELRAEVEAKVAA
B5: E43H (designed binder)
chain: MTLQELLREEALRRAEAEAFRYALELLAEKFPEQKEYLLDLAHEIESQIRSLSGVDVEDVRKFLDKEWAWVKELLAEHPAELAEVEAARAARLAELRAEVEAKVAA
B6: E67P (designed binder)
chain: MTLQELLREEALRRAEAEAFRYALELLAEKFPEQKEYLLDLAEEIESQIRSLSGVDVEDVRKFLDKPWAWVKELLAEHPAELAEVEAARAARLAELRAEVEAKVAA
B7: R89S (designed binder)
chain: MTLQELLREEALRRAEAEAFRYALELLAEKFPEQKEYLLDLAEEIESQIRSLSGVDVEDVRKFLDKEWAWVKELLAEHPAELAEVEAASAARLAELRAEVEAKVAA
B8: E16W (designed binder)
chain: MTLQELLREEALRRAWAEAFRYALELLAEKFPEQKEYLLDLAEEIESQIRSLSGVDVEDVRKFLDKEWAWVKELLAEHPAELAEVEAARAARLAELRAEVEAKVAA
B9: A11G (designed binder)
chain: MTLQELLREEGLRRAEAEAFRYALELLAEKFPEQKEYLLDLAEEIESQIRSLSGVDVEDVRKFLDKEWAWVKELLAEHPAELAEVEAARAARLAELRAEVEAKVAA
B10: L26N (designed binder)
chain: MTLQELLREEALRRAEAEAFRYALENLAEKFPEQKEYLLDLAEEIESQIRSLSGVDVEDVRKFLDKEWAWVKELLAEHPAELAEVEAARAARLAELRAEVEAKVAA
B11: D65P (designed binder)
chain: MTLQELLREEALRRAEAEAFRYALELLAEKFPEQKEYLLDLAEEIESQIRSLSGVDVEDVRKFLPKEWAWVKELLAEHPAELAEVEAARAARLAELRAEVEAKVAA
B12: R97E (designed binder)
chain: MTLQELLREEALRRAEAEAFRYALELLAEKFPEQKEYLLDLAEEIESQIRSLSGVDVEDVRKFLDKEWAWVKELLAEHPAELAEVEAARAARLAELEAEVEAKVAA
B13: L3G (designed binder)
chain: MTGQELLREEALRRAEAEAFRYALELLAEKFPEQKEYLLDLAEEIESQIRSLSGVDVEDVRKFLDKEWAWVKELLAEHPAELAEVEAARAARLAELRAEVEAKVAA
B14: D40Y (designed binder)
chain: MTLQELLREEALRRAEAEAFRYALELLAEKFPEQKEYLLYLAEEIESQIRSLSGVDVEDVRKFLDKEWAWVKELLAEHPAELAEVEAARAARLAELRAEVEAKVAA
B15: S47Q (designed binder)
chain: MTLQELLREEALRRAEAEAFRYALELLAEKFPEQKEYLLDLAEEIEQQIRSLSGVDVEDVRKFLDKEWAWVKELLAEHPAELAEVEAARAARLAELRAEVEAKVAA
B16: R97S (designed binder)
chain: MTLQELLREEALRRAEAEAFRYALELLAEKFPEQKEYLLDLAEEIESQIRSLSGVDVEDVRKFLDKEWAWVKELLAEHPAELAEVEAARAARLAELSAEVEAKVAA
B17: R13H (designed binder)
chain: MTLQELLREEALHRAEAEAFRYALELLAEKFPEQKEYLLDLAEEIESQIRSLSGVDVEDVRKFLDKEWAWVKELLAEHPAELAEVEAARAARLAELRAEVEAKVAA
B18: L52S (designed binder)
chain: MTLQELLREEALRRAEAEAFRYALELLAEKFPEQKEYLLDLAEEIESQIRSSSGVDVEDVRKFLDKEWAWVKELLAEHPAELAEVEAARAARLAELRAEVEAKVAA
B19: K30M (designed binder)
chain: MTLQELLREEALRRAEAEAFRYALELLAEMFPEQKEYLLDLAEEIESQIRSLSGVDVEDVRKFLDKEWAWVKELLAEHPAELAEVEAARAARLAELRAEVEAKVAA
B20: D40K (designed binder)
chain: MTLQELLREEALRRAEAEAFRYALELLAEKFPEQKEYLLKLAEEIESQIRSLSGVDVEDVRKFLDKEWAWVKELLAEHPAELAEVEAARAARLAELRAEVEAKVAA
B21: A17V (designed binder)
chain: MTLQELLREEALRRAEVEAFRYALELLAEKFPEQKEYLLDLAEEIESQIRSLSGVDVEDVRKFLDKEWAWVKELLAEHPAELAEVEAARAARLAELRAEVEAKVAA
B22: H78M (designed binder)
chain: MTLQELLREEALRRAEAEAFRYALELLAEKFPEQKEYLLDLAEEIESQIRSLSGVDVEDVRKFLDKEWAWVKELLAEMPAELAEVEAARAARLAELRAEVEAKVAA
B23: L64K (designed binder)
chain: MTLQELLREEALRRAEAEAFRYALELLAEKFPEQKEYLLDLAEEIESQIRSLSGVDVEDVRKFKDKEWAWVKELLAEHPAELAEVEAARAARLAELRAEVEAKVAA
B24: E95N (designed binder)
chain: MTLQELLREEALRRAEAEAFRYALELLAEKFPEQKEYLLDLAEEIESQIRSLSGVDVEDVRKFLDKEWAWVKELLAEHPAELAEVEAARAARLANLRAEVEAKVAA
B25: A106P (designed binder)
chain: MTLQELLREEALRRAEAEAFRYALELLAEKFPEQKEYLLDLAEEIESQIRSLSGVDVEDVRKFLDKEWAWVKELLAEHPAELAEVEAARAARLAELRAEVEAKVAP
B26: A28Q (designed binder)
chain: MTLQELLREEALRRAEAEAFRYALELLQEKFPEQKEYLLDLAEEIESQIRSLSGVDVEDVRKFLDKEWAWVKELLAEHPAELAEVEAARAARLAELRAEVEAKVAA
B27: V104P (designed binder)
chain: MTLQELLREEALRRAEAEAFRYALELLAEKFPEQKEYLLDLAEEIESQIRSLSGVDVEDVRKFLDKEWAWVKELLAEHPAELAEVEAARAARLAELRAEVEAKPAA
B28: L12M (designed binder)
chain: MTLQELLREEAMRRAEAEAFRYALELLAEKFPEQKEYLLDLAEEIESQIRSLSGVDVEDVRKFLDKEWAWVKELLAEHPAELAEVEAARAARLAELRAEVEAKVAA
B29: A87M (designed binder)
chain: MTLQELLREEALRRAEAEAFRYALELLAEKFPEQKEYLLDLAEEIESQIRSLSGVDVEDVRKFLDKEWAWVKELLAEHPAELAEVEMARAARLAELRAEVEAKVAA
B30: L96V (designed binder)
chain: MTLQELLREEALRRAEAEAFRYALELLAEKFPEQKEYLLDLAEEIESQIRSLSGVDVEDVRKFLDKEWAWVKELLAEHPAELAEVEAARAARLAEVRAEVEAKVAA
B31: A15N (designed binder)
chain: MTLQELLREEALRRNEAEAFRYALELLAEKFPEQKEYLLDLAEEIESQIRSLSGVDVEDVRKFLDKEWAWVKELLAEHPAELAEVEAARAARLAELRAEVEAKVAA
B32: E101C (designed binder)
chain: MTLQELLREEALRRAEAEAFRYALELLAEKFPEQKEYLLDLAEEIESQIRSLSGVDVEDVRKFLDKEWAWVKELLAEHPAELAEVEAARAARLAELRAEVCAKVAA
B33: V85D (designed binder)
chain: MTLQELLREEALRRAEAEAFRYALELLAEKFPEQKEYLLDLAEEIESQIRSLSGVDVEDVRKFLDKEWAWVKELLAEHPAELAEDEAARAARLAELRAEVEAKVAA
B34: E10V (designed binder)
chain: MTLQELLREVALRRAEAEAFRYALELLAEKFPEQKEYLLDLAEEIESQIRSLSGVDVEDVRKFLDKEWAWVKELLAEHPAELAEVEAARAARLAELRAEVEAKVAA

This assay deals with T1, TNFR1. The assay can be described thus: yeast display SC50.
Take B1: the “apparent Kd (screen)” value worked out at 0.653 nM. As for B2, the “apparent Kd (screen)” value is 13.8 nM. The figure for B3 is 0.539 nM. Next, B4: 2.73 nM; B5: 0.718 nM.

For the molecule B6, the “apparent Kd (screen)” value is 5.31 nM. Next, B7: 0.79 nM. For B8, the “apparent Kd (screen)” value stood at 1.16 nM. The figure for B9 is 0.956 nM. Consider B10, for which the “apparent Kd (screen)” value amounted to 0.49 nM.

Turning to B11, the “apparent Kd (screen)” value came to 26.9 nM.

B12: the “apparent Kd (screen)” value was determined as 0.956 nM. The figure for B13 is 20.2 nM; for B14 it is 11.4 nM; for B15 it is 0.956 nM. Next, B16: 0.956 nM.

As for B17, the “apparent Kd (screen)” value was 0.405 nM. As to B18, the “apparent Kd (screen)” value turned out to be 1.16 nM.

As to B19, the “apparent Kd (screen)” value is 0.539 nM. In the case of B20, the “apparent Kd (screen)” value came out at 9.41 nM. For the molecule B21, the “apparent Kd (screen)” value was found to be 0.446 nM.

As to B22, the “apparent Kd (screen)” value worked out at 0.49 nM. Turning to B23, the “apparent Kd (screen)” value amounted to 20.2 nM. Next, B24: 0.718 nM; B25: 0.539 nM. Regarding B26, the “apparent Kd (screen)” value is 4.83 nM.

On to B27, for which the “apparent Kd (screen)” value came to 0.718 nM. In the case of B28, the “apparent Kd (screen)” value was determined as 0.593 nM. Next, B29: 0.49 nM; B30: 0.446 nM.

Take B31: the “apparent Kd (screen)” value worked out at 0.653 nM. The figure for B32 is 0.49 nM; for B33 it is 6.43 nM. The figure for B34 is 0.956 nM.
